Laboratory results from article PMC10418629, “Functional Study of Amorpha fruticosa WRKY20 Gene in Response to Drought Stress”.

Target: T1, GST-AfWRKY20 (Amorpha fruticosa, UniProt A0A8K1R274 1-585)
T1 sequence: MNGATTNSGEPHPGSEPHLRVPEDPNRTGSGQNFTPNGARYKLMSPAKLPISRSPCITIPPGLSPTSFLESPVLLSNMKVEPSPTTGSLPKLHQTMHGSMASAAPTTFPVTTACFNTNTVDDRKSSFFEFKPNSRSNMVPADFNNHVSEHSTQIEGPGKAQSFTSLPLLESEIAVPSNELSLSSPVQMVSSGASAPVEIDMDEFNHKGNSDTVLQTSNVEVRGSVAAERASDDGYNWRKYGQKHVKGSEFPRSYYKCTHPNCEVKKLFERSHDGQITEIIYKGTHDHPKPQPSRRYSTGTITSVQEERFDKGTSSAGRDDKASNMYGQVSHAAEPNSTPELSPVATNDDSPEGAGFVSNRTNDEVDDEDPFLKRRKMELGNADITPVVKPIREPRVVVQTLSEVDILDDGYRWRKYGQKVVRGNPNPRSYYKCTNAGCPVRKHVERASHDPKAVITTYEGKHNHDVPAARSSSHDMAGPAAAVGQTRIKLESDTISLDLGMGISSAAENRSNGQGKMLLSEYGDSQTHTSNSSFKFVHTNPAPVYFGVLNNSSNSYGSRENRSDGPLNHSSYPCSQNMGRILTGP
Assay: EMSA; unlabeled Cold-Pr competitor weakened the shift; EMSA kit (Biyuntian/Beyotime) per instructions; buffer, salt, pH and temperature not stated
Settings: protein: recombinant; tags: GST; blunt as designed; printed strands are not exact complements (F has GGAAC / GGGC, complement of R has GGAC / GGGGC; possible misprint)

B1: W-box probe (Biotin-Pr) (dsDNA)
DNA 1: GGAACTTGACCTTGACCTTAGGGCTGCAGGAATTCG
DNA 2: CGAATTCCTGCAGCCCCTAAGGTCAAGGTCAAGTCC
  binding result: binds
